Measured values: patent US20050287518A1 (Scripps Research, published 2005)

Experiments:
[1] = biological target: T1, Recombinant 6His-tagged RhoA pre-equilibrated with GTPγS (UniProt P61586 1-193, limits assumed); experiment: fluorescence of the solvatochromic dye on mero-CBD, in vitro
T1 construct: also called RhoA-GTPγS; not shown: 6His tag
Protocol: (§1) Analyses of the solvatochromic activation indicator—A solution of mero-CBD (300 nM) in assay buffer was mixed 1:1 (v/v) with solutions of cdc42 (concentration as indicated), pre-equilibrated with 10 mM GDP or GTPγS as described in Knaus, U. G., Heyworth, P. G., Kinsella, B. T., Cumutte, J. T., and Bokoch, G. M. (1992) J. Biol. Chem. 267, 23575-23582. Emission wavelength of 630 nm and excitation wavelength of 600 nm were used to acquire excitation and emission spectra, respectively. For nucleotide dependence, cdc42 (500 nM) was pre-incubated with varying concentrations of GTPγS (1 to 500 nM). Rac1 and RhoA GTPases were pre-equilibrated with GTP […]S in the same manner.
(§2) Fluorescence increase as a measure of CBD-cdc42 interaction—The functionality and specificity of mero-CBD was characterized by measuring fluorescence in the presence of saturating amounts of cdc42-GDP or cdc42-GTPγS. […] Negligible increase (<5%) was also observed in the presence of activated Rac1. No effect on the mero-CBD fluorescence was observed when RhoA-GTPγS was present. Furthermore, even in the presence of excess of activated Rac1 and RhoA, GDP- and GTPγS-bound forms of cdc42 were easily distinguished by CBD-A4C fluorescence (data not shown).

[2] = biological target: T2, Recombinant 6His-tagged cdc42 bound to GTPγS (UniProt P60953 1-191, limits assumed); experiment: fluorescence of mero-CBD with saturating amounts of cdc42-GTPγS
T2 construct: Pre-equilibrated with GTPγS; also called cdc42-GTPγS; not shown: 6His tag
Protocol: as §1, §2

[3] = biological target: T2, Recombinant 6His-tagged cdc42 bound to …; experiment: fluorescence of the solvatochromic dye on CBD, comparison of three cysteine mutants (FIG. 15)
Protocol: as §1

T2 sequence (P60953 whole entry): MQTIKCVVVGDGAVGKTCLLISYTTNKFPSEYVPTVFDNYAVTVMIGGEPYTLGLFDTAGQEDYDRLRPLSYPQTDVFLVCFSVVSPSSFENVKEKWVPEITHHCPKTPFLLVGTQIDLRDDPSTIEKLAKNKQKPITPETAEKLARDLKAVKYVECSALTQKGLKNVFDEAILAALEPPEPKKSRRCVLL
T1 sequence (P61586 whole entry): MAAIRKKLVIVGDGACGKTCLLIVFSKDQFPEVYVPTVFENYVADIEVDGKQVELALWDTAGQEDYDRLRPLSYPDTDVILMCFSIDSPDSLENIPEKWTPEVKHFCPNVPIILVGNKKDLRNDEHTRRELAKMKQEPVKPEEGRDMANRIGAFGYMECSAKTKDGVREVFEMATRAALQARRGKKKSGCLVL

B1: mero-CBD-F271C conjugate (Cdc42-binding fragment of human WASP, amino acids 201 to 321, F271C, C-terminal 6His fusion, labeled with the merocyanine dye of FIG. … (other)
chain: DIQNPDITSSRYRGLPAPGPSPADKKRSGKKKISKADIGAPSGFKHVSHVGWDPQNGFDVNNLDPDLRSLCSRAGISEAQLTDAETSKLIYDFIEDQGGLEAVRQEMRRQEPLPPPPPPSHHHHHH
modifications: chain 1 pos 71 (WASP 271): Cys carrying the thiol-reactive merocyanine dye of FIG. 11, written C
notes: Dye-to-protein ratio 0.8 to 1.2 for single-dye conjugates; also called CBD biosensor; CBD-mero
binding result [1]: no binding | fold increase in excitation and emission maxima [2]: ~3.5 fold | fold fluorescence change on binding [3]: ~3.5 fold
